From US20260274955A1 (JANUX THERAPEUTICS, published 2026)
No end group written: not given here.

target: T1, anti-CD28 Fab (SEQ ID NOs: 202, 203); assay: phage binding ELISA on captured biotinylated Fab;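 note: clonal phage supernatants added to wells preincubated with CD28 antigen or blocking buffer only, bound phage detected by ELISA with horseradish-conjugated anti-M13 antibody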
T1 construct: biotinylated and captured on neutravidin coated plates in the phage ELISA
T1 sequence (VH, as listed by the source, chain 1 of 2): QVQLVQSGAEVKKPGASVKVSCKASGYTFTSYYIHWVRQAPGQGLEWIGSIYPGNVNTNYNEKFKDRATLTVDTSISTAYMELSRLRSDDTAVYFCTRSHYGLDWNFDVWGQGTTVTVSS
T1 sequence (VL, as listed by the source, chain 2 of 2): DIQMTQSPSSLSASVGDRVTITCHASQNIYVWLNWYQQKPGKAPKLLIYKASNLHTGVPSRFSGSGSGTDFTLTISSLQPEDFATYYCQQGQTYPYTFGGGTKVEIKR
Protocol: (§1) After panning, phage infected bacteria were plated out and colonies picked into 96 well blocks. Clonal phage was then amplified and separated from bacterial cells via centrifugation.
(§2) Clonal phage were harvested as crude supernatants and screened via standard ELISAs. […] Prior to the addition of clonal phage, wells were incubated with blocking buffer and CD28 antigen or blocking buffer alone. Without washing or aspirating, clonal phage supernatants were then added to the wells and incubated for a short time. Wells were then washed followed by detection of bound phage using a horse radish conjugated anti-M13 antibody. Clonal phage of interest were then sent for sequence analysis.

In order of falling “Anti-CD28 Fab (SEQ ID NOs: 202, 203) signal” value:
1. MCAAGFHYPWPACL [Phage-927]  2.23
2. TCAAGANWEWPWCF [Phage-928]  2.22
3. TCAAGATYAWPYCV [Phage-929]  2.21
4. MCSAGANWPWPLCF [Phage-932]  2.18
5. TCAAGAAYPWPLCF [Phage-930]  2.18
6. TCSAGASNKLSLCL [Phage-931]  2.18
7. RCSAGFHYPLSLCL [Phage-933]  2.18
8. NCSAGATYPWPLCL [Phage-934]  2.17
9. SCAAGAMYSWPTCL [Phage-935]  2.16
10. TCSAGATYTWSKCF [Phage-939]  2.15
11. TCSAGATYTWPWCF [Phage-941]  2.14

target: anti-CD28 Fab (SEQ ID NOs: 202, 203); assay: phage binding ELISA; biotinylated anti-CD28 Fab captured on neutravidin plate, clonal phage supernatant, anti-M13-HRP detection;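 note: before crude clonal phage supernatants were added, wells were preincubated with CD28 antigen in blocking buffer or with blocking buffer only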
Target sequence in this assay (VH, as listed by the source, chain 1 of 2): as the sequence (VH, as listed by the source, chain 1 of 2) above
Target sequence in this assay (VL, as listed by the source, chain 2 of 2): as the sequence (VL, as listed by the source, chain 2 of 2) above
Protocol: as §1, §2

In order of rising “Anti-CD28 Fab (SEQ ID NOs: 202, 203) signal” value:
1. GCAAGFHYTLSTCL [Phage-1259]  0.42
2. SCGGGFHYSWPLCF [Phage-1258]  0.55
3. SCAAGAGYGWPQCL [Phage-1257]  0.55
4. DCWWDSPYHWRVCL [Phage-1256]  0.57
5. SCSAGASYAWPMCI [Phage-1255]  0.59
6. WCSAVFSYQWPVCL [Phage-1254]  0.61
7. TCSAGAQWEWPACL [Phage-1253]  0.67
8. GCAAGAEYNWPTCL [Phage-1251]  0.69
9. TCAAGAAYTWPHCF [Phage-1252]  0.69
10. TCAAGAQLEWPWCF [Phage-1250]  0.7
11. TCAAGAVWQWPTCF [Phage-1248]  0.71
12. PCSAGATYAWPYCL [Phage-1249]  0.71
13. TCAAGATYDWPSCL [Phage-1247]  0.71
14. ECSAGAMWGWPACF [Phage-1246]  0.73
15. ICAAGAGWPWPWCL [Phage-1245]  0.75
16. TCSAGATYGWPACF [Phage-1244]  0.76
17. TCSAGATYKWPMCF [Phage-1243]  0.77

target: T2, anti-CD28 Fab (SEQ ID NOs: 202, 203); assay: binding ELISA, peptide captured, anti-CD28 Fab titrated
T2 construct: biotinylated when captured in the phage ELISAs
T2 sequence (VH, as listed by the source, chain 1 of 2): as the sequence (VH, as listed by the source, chain 1 of 2) above
T2 sequence (VL, as listed by the source, chain 2 of 2): as the sequence (VL, as listed by the source, chain 2 of 2) above

In order of falling EC50:
1. SCSAGAAYYWPWCL (cysteine pairing not given here; also: biotinylated, site not given here) [Peptide-103]  112 nM
2. LCAAGATYPWPTCL (cysteine pairing not given here; also: biotinylated, site not given here) [Peptide-99]  25.8 nM
3. TCSAGAAYSWPACF (cysteine pairing not given here; also: biotinylated, site not given here) [Peptide-98]  24.3 nM
4. TCAAGATYLWPTCL (cysteine pairing not given here; also: biotinylated, site not given here) [Peptide-105]  20.5 nM
5. SCSAGAHYPWPQCF (cysteine pairing not given here; also: biotinylated, site not given here) [Peptide-100]  19 nM
6. TCSAGATYTWPKCF (cysteine pairing not given here; also: biotinylated, site not given here) [Peptide-93]  15.7 nM
7. TCSAGATWAWPLCF (cysteine pairing not given here; also: biotinylated, site not given here) [Peptide-104]  15.6 nM
8. LCAAGASWPWPVCL (cysteine pairing not given here; also: biotinylated, site not given here) [Peptide-90]  13.1 nM
9. TCSAGATYEWPRCL (cysteine pairing not given here; also: biotinylated, site not given here) [Peptide-101]  12.8 nM
10. TCSAGAHYPWPICL (cysteine pairing not given here; also: biotinylated, site not given here) [Peptide-102]  10.6 nM
11. TCAAGAAWGWPLCF (cysteine pairing not given here; also: biotinylated, site not given here) [Peptide-95]  5.6 nM
12. LCAAGATYPWPLCL (cysteine pairing not given here; also: biotinylated, site not given here) [Peptide-96]  5.6 nM
13. TCSAGASYPWPLCL (cysteine pairing not given here; also: biotinylated, site not given here) [Peptide-91]  5.3 nM
14. TCAAGATWSWPACF (cysteine pairing not given here; also: biotinylated, site not given here) [Peptide-94]  4.5 nM
15. TCSAGAAYPWPLCL (cysteine pairing not given here; also: biotinylated, site not given here) [Peptide-97]  4.4 nM
16. TCAAGAHYPWPACL (cysteine pairing not given here; also: biotinylated, site not given here) [Peptide-106]  4.2 nM
17. TCAAGAAWPWPQCL (cysteine pairing not given here; also: biotinylated, site not given here) [Peptide-92]  2.6 nM

target: anti-CD28 Fab (SEQ ID NOs: 202, 203); assay: phage binding ELISA; captured anti-CD28 Fab pre-incubated with CD28 antigen as competitor, anti-M13-HRP detection
Target sequence in this assay (VH, as listed by the source, chain 1 of 2): as the sequence (VH, as listed by the source, chain 1 of 2) above
Target sequence in this assay (VL, as listed by the source, chain 2 of 2): as the sequence (VL, as listed by the source, chain 2 of 2) above
Protocol: as §1, §2

In order of rising “Anti-CD28 Fab signal in the presence of CD28” value:
1. GCAAGFHYTLSTCL [Phage-1259]  0.05
2. SCSAGASYAWPMCI [Phage-1255]  0.06
3. TCAAGAVWQWPTCF [Phage-1248]  0.06
4. WCSAVFSYQWPVCL [Phage-1254]  0.06
5. DCWWDSPYHWRVCL [Phage-1256]  0.07
6. TCAAGAQLEWPWCF [Phage-1250]  0.07
7. TCSAGATYGWPACF [Phage-1244]  0.07
8. TCSAGATYKWPMCF [Phage-1243]  0.07
9. TCSAGAQWEWPACL [Phage-1253]  0.08
10. TCAAGATYDWPSCL [Phage-1247]  0.08
11. ECSAGAMWGWPACF [Phage-1246]  0.09
12. PCSAGATYAWPYCL [Phage-1249]  0.09
13. ICAAGAGWPWPWCL [Phage-1245]  0.1
14. TCAAGAAYTWPHCF [Phage-1252]  0.11
15. SCAAGAGYGWPQCL [Phage-1257]  0.13
16. SCGGGFHYSWPLCF [Phage-1258]  0.15
17. GCAAGAEYNWPTCL [Phage-1251]  0.64

target: T1, anti-CD28 Fab (SEQ ID NOs: 202, 203); assay: phage binding ELISA on captured Fab, competitor CD28 antigen
Protocol: as §1, §2

In order of falling “Anti-CD28 Fab signal in the presence of CD28” value:
1. TCAAGAAYPWPLCF [Phage-930]  0.11
2. MCAAGFHYPWPACL [Phage-927]  0.1
3. TCAAGATYAWPYCV [Phage-929]  0.09
4. TCAAGANWEWPWCF [Phage-928]  0.08
5. SCAAGAMYSWPTCL [Phage-935]  0.08
6. TCSAGATYTWPWCF [Phage-941]  0.07
7. MCSAGANWPWPLCF [Phage-932]  0.07
8. NCSAGATYPWPLCL [Phage-934]  0.07
9. TCSAGATYTWSKCF [Phage-939]  0.06
10. TCSAGASNKLSLCL [Phage-931]  0.06
11. RCSAGFHYPLSLCL [Phage-933]  0.06
